B1: Hairpin Ribozyme (parent)
chain: GUCCUCUUUCACGUGCGCGUGAAAGAGAGAAGUGAACCAGAGAAACACACGUUGUGGUAUAUUACCUGGUA

Variants of: B1
Assay: self-cleavage, relative activity (ratio to wild type); higher = more cleavage; co-transcriptional

Variant	self-cleavage
G29U G42U	0.107
A30G C48A	0.0555
A30G C48G	0.0877
A30G C48U	0.19
A28G U33G	0.211
G29U G68A	0.097
A30C G51A	0.26
A30C G51C	0.0477
A30C G51U	0.178
G29A A71U	0.126
A30U A43C	0.117
A30U A43U	0.0952
A28U C37A	0.143
G29A U58A	0.165
G29A G40A	0.133
A28G C37U	0.644
A30C C38A	0.183
A30C C38G	0.0718
A30C C38U	0.209
A28G A44C	0.202
A30C A39C	0.12
A30C A39U	0.0707
A30G A43G	0.0977
G29U U70G	0.315

Variant	self-cleavage
A28G U52A	0.814
G29U U52C	0.178
G29A A41G	0.106
G29A A41C	0.053
G29A U60G	0.0375
G29A U60C	0.144
G29A U60A	0.137
G29C U63A	0.217
G29A	0.126
G29C	0.133
G29U	0.132
A30G G54U	0.123
A30C C50A	0.0998
A30G G32A	0.137
A30G G32U	0.124
A30G G32C	0.106
A30U A41U	0.232
A30G G56C	0.0815
G29U C50U	0.163
A30C G56C	0.0453
A30C G56A	0.194
A30G A45C	0.267
G29C U33C	0.224
G29C U33G	0.13

Variant	self-cleavage
G29C A36U	0.0836
G29C A36C	0.179
A28C U58C	0.545
G29A G32U	0.0536
G29C A64U	0.192
G29C A47U	0.093
G29C A31G	0.187
A28G A43C	0.153
G29U A59C	0.0619
A30G C46G	0.185
G29U G57A	0.172
A28G C66A	0.231
G29U C48A	0.0831
G29U C48U	0.124
A28G C48U	0.276
G29U U60A	0.169
A30G G69A	0.12
A30G G69C	0.0841
A30G A35U	0.0439
A30G A35G	0.125
A30G A35C	0.141
G29A U67C	0.106
G29A U67A	0.0562
G29A U67G	0.0868

Variant	self-cleavage
G29U A41G	0.082
G29U A41U	0.116
G29U A35C	0.11
G29U A35G	0.137
A28C U52C	0.584
G29C U70C	0.133
A30C U62A	0
G29A A49G	0.138
A30C G40C	0.0198
A30C G40U	0.0963
A30C G40A	0.116
A28U G69C	0.219
A28G U67G	0.294
A28G G54C	0.432
A30C A61U	0.097
A30C A61G	0.12
G29A A44G	0.113
G29A A44C	0.17
A30C A41C	0.315
G29A G42U	0.197
G29A G42C	0.0675
A28G U55G	0.427
A28U A45C	0.0951
A28U A45U	0.224

Variant	self-cleavage
A30G A41C	0.201
G29U A61G	0.223
A28U U33A	0.152
A28U U33C	0.079
A28G G29A	0.13
A28G U70G	0.978
A30C U55G	0.0965
A30C C48G	0.126
A28C U55A	0.155
G29C G68C	0.124
A30G A59C	0.0815
A30G A59G	0.311
A30C A47G	0.0558
A30G G42U	0.0793
G29A A64C	0.115
G29A A64U	0.134
A28U A31C	0.251
G29C U62C	0.113
A30C U53A	0.0771
G29U G56U	0.143
A30G C37G	0.0733
A28G C46U	0.137
A28U A36G	0.656
G29A A30G	0.135

Variant	self-cleavage
A28G C65U	0.498
G29A C48U	0.0646
G29A C48A	0.131
A30C U67C	0.0679
A30C U67A	0.0972
A30C U67G	0.109
A28U C48G	0.195
G29A A36U	0.278
G29A A36C	0.0858
A30U A35G	0.217
G29C C65U	0.135
A28U U67A	0.0994
A28U U67C	0.12
A30G A39C	0.106
A30G A39G	0.127
A30G U33A	0.0512
A30G U33G	0.0952
A28G A45C	0.279
G29A A31G	0.145
G29A A31U	0.178
A28G C50A	0.415
A30U A31U	0.149
G29A U62C	0.0819
A28U U55A	0.235

Variant	self-cleavage
G29U A36U	0.104
A28U A43C	0.133
A28U A43U	0.132
A30C G68A	0.0646
G29A U52C	0.156
G29U U58A	0.154
A30C A71U	0.104
A30G G57C	0.0397
G29U A44U	0.125
G29U A44C	0.251
G29C C38U	0.145
G29C C38G	0.122
A30C C66A	0.0863
A28G G57C	0.263
A28C G56U	0.0871
A28C G56A	0.137
A30G C38A	0.0519
A30G C38G	0.149
G29C G42C	0.142
A30C A35U	0.156
A30C A35G	0.217
A28C U70G	0.322
A28C U70C	0.426
G29C G57C	0.131

Variant	self-cleavage
A28U C50U	0.1
G29U A30C	0.154
G29C U67G	0.12
A28U G34C	1.23
A28U G34U	1.41
G29A G51U	0.0861
G29A G51A	0.138
A30G A36C	0
A30G A36G	0.0448
G29C U55A	0.164
G29A A45C	0.0675
G29A A45U	0.0463
A28G A30U	0.0576
G29A C50A	0.168
A28U C38A	0.159
A28U C38G	0.0619
G29U C37U	0.192
G29A G69A	0.117
G29A G56U	0.111
G29U U67C	0.101
A28G A39C	0.748
A28G A39U	0.536
G29C G56U	0.0807
A30G U53A	0.0621

Variant	self-cleavage
A30G U53C	0.288
A28G A71C	1.26
A28G A71G	0.941
G29A G54A	0.141
G29A A39U	0.107
G29A A61U	0.096
A30C C65U	0.12
A30C C65A	0.0386
A28U U63A	0.128
G29C G51A	0.125
G29C G51C	0.103
A30G U55C	0.0826
A30G G51A	0.254
G29A C66U	0.194
G29U U53A	0.103
G29U U63C	0.084
A28C U60C	0.558
A28C U60G	0.383
A30G A47U	0.131
A28U C66A	0.194
A28G G69U	0.331
G29C A44U	0.18
A30C A44G	0.145
A30C A44U	0.106

Variant	self-cleavage
A30C A59G	0.0647
A30C A59C	0.0289
A30C A59U	0.169
A28G A36C	0.778
G29A A47G	0.244
A30G U52G	0.186
A28U G40U	0.13
G29C A71U	0.21
G29C C66G	0.137
G29C C66U	0.135
G29C C66A	0.182
A30G A44U	0.227
A28U U58C	0.58
G29U C66G	0.233
G29U C66A	0.205
G29C C46U	0.171
G29C C46A	0.111
G29A U63G	0.116
G29A U63A	0.124
G29U C65G	0.0526
A28U G54A	0.32
A28U G54C	0.219
A28U U53C	0.769
G29A C65A	0.0759

Variant	self-cleavage
G29A C65G	0.158
G29U A64C	0.142
G29U G34U	0.124
A28G G56C	0.0641
A28G G56U	0.165
A28G G56A	0.296
G29C A41U	0.103
A28U G57A	0.152
A30G G68C	0.132
A30G G68A	0.0362
A30G U67A	0.215
G29C C37A	0.14
G29C C37G	0.084
A28U A44C	0.179
A28U A44G	0.25
A28U A49G	0.365
A30C U63A	0.267
A30C U63G	0
G29C U53C	0.252
A30G G34C	0.79
A30G G34A	0.164
A30C G32C	0.12
A30C G32U	0.188
G29C C48A	0.136

Variant	self-cleavage
G29U A47G	0.0517
A30C A43C	0.261
G29C G54U	0.162
A28U U70G	0.338
A28U U52G	0.374
G29U A71C	0.152
G29U A43C	0.0797
A30C U60C	0.279
A30C A64G	0.0788
A30C A64U	0.211
A30C A64C	0.127
A28U A30C	0.167
A28U A30G	0.0577
A28C G69U	0.0989
A30G U62A	0.0629
G29A U53C	0.234
G29A U53G	0.0705
A28G G68U	0.372
G29A A59C	0.138
G29A A59G	0.162
A30C G34C	0.79
G29A C46A	0.0992
G29A C46G	0.0584
G29A C46U	0.238

Variant	self-cleavage
G29A G34A	0.201
A28G G42C	0.47
A28G G51A	1.25
A28G G40C	0.166
A30C U70A	0.159
A30C U70C	0.127
G29A C38U	0.19
G29A U33C	0.0835
A30G A61U	0.153
A28U U60G	0.3
A28U G51A	0.716
A28C G57U	0.0228
A28C G57C	0.145
G29C A45C	0.207
A30C G42C	0.094
A30C G42A	0.0752
A30C G42U	0.111
A30G C66U	0.1
A28G A47G	0.198
G29C A43U	0.0794
G29U G69U	0.099
G29U G54C	0.12
A28G A31C	0.113
A28C G68U	0.214

Variant	self-cleavage
A28C G68A	0.182
A28C U33G	0
A28C U33A	0.145
A28G A41U	1.05
G29A A43U	0.0816
G29A A43G	0.205
A28U A47U	0.125
A28U A47G	0.0453
A30G A71C	0.217
A30G A71U	0.225
G29U C38U	0.1
A30G G40C	0.131
G29U G51U	0.121
G29U G51A	0.139
A28G U62C	0.302
A30C C37U	0.0704
A30C C37G	0.277
G29U G40C	0.0749
G29U G40A	0.121
G29U G40U	0.147
A28G U58G	0.91
A28G U58C	0.791

— the RNAGym collection of RNA variant scans (doi:10.7554/elife.80360)
